Where two headings read alike, the source gives them in different places.
Columns and labels:
[1] = type: physicochemical
Method: HPLC sample standards were prepared by dissolving KLG, MeKLG, ascorbic acid (ASA), and butyl-KLG to the appropriate concentration in water. Samples of these standards were placed in filled and sealed vials, stored at room temperature, and analyzed periodically. The HPLC was calibrated on the area response for standards that were injected onto the HPLC as soon as possible after the preparation of the standards.

[2] = enzyme screen for hydrolysis/methanolysis of butyl-KLG (HPLC of products and remaining substrate); type: biochemical; set-up: KLG formed / MeKLG formed / ASA formed / BuKLG (remaining substrate): unit: ppm
Method: Initial enzyme screens were carried out as follows. Enzyme (typically 10 mg), aqueous buffer (typically 860 microliters (ul) or 550 ul), aqueous 0.2M CaCl2 (10 ul), methanol (typically 90 ul or 400 ul), and an aqueous solution of substrate (typically 90 ul of butyl-KLG at a typical concentration of 110,000 ppm) were added to a 2 ml polypropylene centrifuge tube. The resulting solution was vortexed briefly and placed on a shaker bath at 300 rpm at 38° C. (typically for 18 hours or more). After incubation, samples were centrifuged at 14,000 G's (14,000 times gravity) for 20 minutes to remove enzyme, sampled (300 ul), and diluted to one milliliter with distilled water. If not analyzed by HPLC within the day, samples were frozen prior to analysis.
The data were reported in terms of parts per million of KLG, MeKLG, ascorbic acid (ASA) and butyl-KLG. […] Samples labeled as "no enzyme" were controls within a given run. The controls contained substrate but no enzyme and thus represented experimental and HPLC background data.

[3] = Table 3: 38° C., 16 Hours, 38% Methanol-Water, 0.1M MES Buffer
[4] = Table 4: 38° C., 47.5 Hours, 38% Methanol-Water, 0.1M MES Buffer
[5] = Table 8: 38° C., 21 Hours, 8.6% Methanol-Water, 0.2 M MES
[6] = Table 7: 38° C., 19 Hours, 8.6% Methanol-Water, 0.1M MES
[7] = Table 5: 38° C., 19 Hours, 38% Methanol-Water, 0.1 M MES Buffer
[8] = Table 6: 38°, 19 Hours, 8.6% Methanol-Water, 0.1 M MES

ASA formed [2, 3]	KLG formed [2, 3]	MeKLG formed [2, 3]	ASA formed [2, 4]	KLG formed [2, 4]	MeKLG formed [2, 4]	ASA formed [2, 5]	KLG formed [2, 5]	MeKLG formed [2, 5]	ASA formed [2, 6]	KLG formed [2, 6]	MeKLG formed [2, 6]	Molecule	BuKLG (remaining substrate) [2, 3]	BuKLG (remaining substrate) [2, 4]	BuKLG (remaining substrate) [2, 5]	BuKLG (remaining substrate) [2, 6]	further results
–	–	–	–	–	–	–	–	–	–	–	–	O=C1O[C@H]([C@@H](O)CO)C(O)=C1O [ASA, ascorbic acid]	–	–	–	–	Amount Found ([1]; 50 ppm standard, 0 minutes): 53.4 ppm; Amount Found ([1]; 50 ppm standard, 400 minutes): 28.3 ppm; Amount Found ([1]; 50 ppm standard, 715 minutes): 0 ppm; Amount Found ([1]; 100 ppm standard, 0 minutes): 107 ppm; Amount Found ([1]; 100 ppm standard, 400 minutes): 96.6 ppm; Amount Found ([1]; 100 ppm standard, 715 minutes): 57.2 ppm; Amount Found ([1]; 500 ppm standard, 0 minutes): 534 ppm; Amount Found ([1]; 500 ppm standard, 400 minutes): 487 ppm; Amount Found ([1]; 500 ppm standard, 715 minutes): 473 ppm
6 ppm	63 ppm	90 ppm	42 ppm	129 ppm	241 ppm	10 ppm	176 ppm	129 ppm	–	–	–	Humicola lanuginosa Lipase: Humicola lanuginosa Lipase (protein, UniProt O59952 23-291, looked up) Lipase: EVSQDLFNQFNLFAQYSAAAYCGKNNDAPAGTNITCTGNACPEVEKADATFLYSFEDSGVGDVTGFLALDNTNKLIVLSFRGSRSIENWIGNLNFDLKEINDICSGCRGHDGFTSSWRSVADTLRQKVEDAVREHPDYRVVFTGHSLGGALATVAGADLRGNGYDIDVFSYGAPRVGNRAFAEFLTVQTGGTLYRITHTNDIVPRLPPREFGYSHSSPEYWIKSGTLVPVTRNDIVKIEGIDATGGNNQPNIPDIPAHLWYFGLIGTCL	10191 ppm	8017 ppm	7215 ppm	–	–
49 ppm	81 ppm	316 ppm	222 ppm	229 ppm	613 ppm	78 ppm	303 ppm	320 ppm	314	333	291	Porcine Pancreatic Lipase: Porcine Pancreatic Lipase (protein, UniProt P00591 1-450, looked up) Pancreatic triacylglycerol …: SEVCFPRLGCFSDDAPWAGIVQRPLKILPWSPKDVDTRFLLYTNQNQNNYQELVADPSTITNSNFRMDRKTRFIIHGFIDKGEEDWLSNICKNLFKVESVNCICVDWKGGSRTGYTQASQNIRIVGAEVAYFVEVLKSSLGYSPSNVHVIGHSLGSHAAGEAGRRTNGTIERITGLDPAEPCFQGTPELVRLDPSDAKFVDVIHTDAAPIIPNLGFGMSQTVGHLDFFPNGGKQMPGCQKNILSQIVDIDGIWEGTRDFVACNHLRSYKYYADSILNPDGFAGFPCDSYNVFTANKCFPCPSEGCPQMGHYADRFPGKTNGVSQVFYLNTGDASNFARWRYKVSVTLSGKKVTGHILVSLFGNEGNSRQYEIYKGTLQPDNTHSDEFDSDVEVGDLQKVKFIWYNNNVINPTLPRVGASKITVERNDGKVYDFCSQETVREEVLLTLNPC	10709 ppm	10899 ppm	6860 ppm	7888	–
–	–	–	120 ppm	94 ppm	884 ppm	–	–	–	106	1007	575	L-7 (Porcine pancreas): Lipase (Porcine pancreas) (protein, UniProt P00591 1-450, looked up) Pancreatic triacylglycerol …: SEVCFPRLGCFSDDAPWAGIVQRPLKILPWSPKDVDTRFLLYTNQNQNNYQELVADPSTITNSNFRMDRKTRFIIHGFIDKGEEDWLSNICKNLFKVESVNCICVDWKGGSRTGYTQASQNIRIVGAEVAYFVEVLKSSLGYSPSNVHVIGHSLGSHAAGEAGRRTNGTIERITGLDPAEPCFQGTPELVRLDPSDAKFVDVIHTDAAPIIPNLGFGMSQTVGHLDFFPNGGKQMPGCQKNILSQIVDIDGIWEGTRDFVACNHLRSYKYYADSILNPDGFAGFPCDSYNVFTANKCFPCPSEGCPQMGHYADRFPGKTNGVSQVFYLNTGDASNFARWRYKVSVTLSGKKVTGHILVSLFGNEGNSRQYEIYKGTLQPDNTHSDEFDSDVEVGDLQKVKFIWYNNNVINPTLPRVGASKITVERNDGKVYDFCSQETVREEVLLTLNPC	–	5488 ppm	–	5392	–
–	–	–	–	–	–	–	–	–	–	–	–	Hog Pancreatic Lipase: Hog Pancreatic Lipase, Fluka (protein, UniProt P00591 1-450, looked up) Pancreatic triacylglycerol …: SEVCFPRLGCFSDDAPWAGIVQRPLKILPWSPKDVDTRFLLYTNQNQNNYQELVADPSTITNSNFRMDRKTRFIIHGFIDKGEEDWLSNICKNLFKVESVNCICVDWKGGSRTGYTQASQNIRIVGAEVAYFVEVLKSSLGYSPSNVHVIGHSLGSHAAGEAGRRTNGTIERITGLDPAEPCFQGTPELVRLDPSDAKFVDVIHTDAAPIIPNLGFGMSQTVGHLDFFPNGGKQMPGCQKNILSQIVDIDGIWEGTRDFVACNHLRSYKYYADSILNPDGFAGFPCDSYNVFTANKCFPCPSEGCPQMGHYADRFPGKTNGVSQVFYLNTGDASNFARWRYKVSVTLSGKKVTGHILVSLFGNEGNSRQYEIYKGTLQPDNTHSDEFDSDVEVGDLQKVKFIWYNNNVINPTLPRVGASKITVERNDGKVYDFCSQETVREEVLLTLNPC	–	–	–	–	ASA formed [2, 7]: 130 ppm; BuKLG (remaining substrate) [2, 7]: 11114 ppm; KLG formed [2, 7]: 58 ppm; MeKLG formed [2, 7]: 529 ppm; ASA formed [2, 8]: 158 ppm; BuKLG (remaining substrate) [2, 8]: 5284 ppm; KLG formed [2, 8]: 890 ppm; MeKLG formed [2, 8]: 791 ppm
–	–	–	108 ppm	54 ppm	189 ppm	54 ppm	243 ppm	283 ppm	156	229	278	Mucor meihei Lipase: Mucor meihei Lipase (protein, UniProt P19515 95-363, looked up) Lipase: SIDGGIRAATSQEINELTYYTTLSANSYCRTVIPGATWDCIHCDATEDLKIIKTWSTLIYDTNAMVARGDSEKTIYIVFRGSSSIRNWIADLTFVPVSYPPVSGTKVHKGFLDSYGEVQNELVATVLDQFKQYPSYKVAVTGHSLGGATALLCALDLYQREEGLSSSNLFLYTQGQPRVGDPAFANYVVSTGIPYRRTVNERDIVPHLPPAAFGFLHAGEEYWITDNSPETVQVCTSDLETSDCSNSIVPFTSVLDHLSYFGINTGLCT	–	7041 ppm	7067 ppm	8620	–
1 ppm	51 ppm	99 ppm	–	–	–	0 ppm	178 ppm	0 ppm	–	–	–	Rhizoipus Delmar Lipase: Rhizoipus Delmar Lipase (protein, UniProt P61872 96-392, looked up) Lipase: DDNLVGGMTLDLPSDAPPISLSSSTNSASDGGKVVAATTAQIQEFTKYAGIAATAYCRSVVPGNKWDCVQCQKWVPDGKIITTFTSLLSDTNGYVLRSDKQKTIYLVFRGTNSFRSAITDIVFNFSDYKPVKGAKVHAGFLSSYEQVVNDYFPVVQEQLTAHPTYKVIVTGHSLGGAQALLAGMDLYQREPRLSPKNLSIFTVGGPRVGNPTFAYYVESTGIPFQRTVHKRDIVPHVPPQSFGFLHPGVESWIKSGTSNVQICTSEIETKDCSNSIVPFTSILDHLSYFDINEGSCL	7392 ppm	–	7097 ppm	–	–
17 ppm	80 ppm	252 ppm	–	–	–	61 ppm	178 ppm	181 ppm	–	–	–	Rhizopus Niveus Lipase: Rhizopus Niveus Lipase (protein, UniProt P61871 96-392, looked up) Lipase: DDNLVGGMTLDLPSDAPPISLSSSTNSASDGGKVVAATTAQIQEFTKYAGIAATAYCRSVVPGNKWDCVQCQKWVPDGKIITTFTSLLSDTNGYVLRSDKQKTIYLVFRGTNSFRSAITDIVFNFSDYKPVKGAKVHAGFLSSYEQVVNDYFPVVQEQLTAHPTYKVIVTGHSLGGAQALLAGMDLYQREPRLSPKNLSIFTVGGPRVGNPTFAYYVESTGIPFQRTVHKRDIVPHVPPQSFGFLHPGVESWIKSGTSNVQICTSEIETKDCSNSIVPFTSILDHLSYFDINEGSCL	10453 ppm	–	7102 ppm	–	–
–	–	–	0 ppm	3072 ppm	47 ppm	–	–	–	0	4463	93	Subtilisin Carlsberg: Subtilisin Carlsberg (a protease) (protein, UniProt P00780 106-379, looked up) Subtilisin Carlsberg: AQTVPYGIPLIKADKVQAQGFKGANVKVAVLDTGIQASHPDLNVVGGASFVAGEAYNTDGNGHGTHVAGTVAALDNTTGVLGVAPSVSLYAVKVLNSSGSGSYSGIVSGIEWATTNGMDVINMSLGGASGSTAMKQAVDNAYAKGVVVVAAAGNSGSSGNTNTIGYPAKYDSVIAVGAVDSNSNRASFSSVGAELEVMAPGAGVYSTYPTNTYATLNGTSMASPHVAGAAALILSKHPNLSASQVRNRLSSTATYLGSSFYYGKGLINVEAAAQ	–	0 ppm	–	4428	levels of activity / conversion of butyl-KLG ([2]; Example 4: 38% methanol-water, MES, pH 5 to 5.8): particularly high levels of activity
